This note sets out measurements from patent publication US20100137221A1, “PEPTIDES THAT INTERACT WITH TOPOISOMERASE I AND METHODS THEREOF” (UNIVERSITY UTAH RESEARCH FOUNDATION, priority 2007, published 2010).

One assay concerns the target T1, top 1-DNA binding (Homo sapiens, UniProt P11387).
T1 construct: made in house; host or cells: Sf9 insect cells (baculovirus) or human placenta
T1 sequence (P11387 1-765): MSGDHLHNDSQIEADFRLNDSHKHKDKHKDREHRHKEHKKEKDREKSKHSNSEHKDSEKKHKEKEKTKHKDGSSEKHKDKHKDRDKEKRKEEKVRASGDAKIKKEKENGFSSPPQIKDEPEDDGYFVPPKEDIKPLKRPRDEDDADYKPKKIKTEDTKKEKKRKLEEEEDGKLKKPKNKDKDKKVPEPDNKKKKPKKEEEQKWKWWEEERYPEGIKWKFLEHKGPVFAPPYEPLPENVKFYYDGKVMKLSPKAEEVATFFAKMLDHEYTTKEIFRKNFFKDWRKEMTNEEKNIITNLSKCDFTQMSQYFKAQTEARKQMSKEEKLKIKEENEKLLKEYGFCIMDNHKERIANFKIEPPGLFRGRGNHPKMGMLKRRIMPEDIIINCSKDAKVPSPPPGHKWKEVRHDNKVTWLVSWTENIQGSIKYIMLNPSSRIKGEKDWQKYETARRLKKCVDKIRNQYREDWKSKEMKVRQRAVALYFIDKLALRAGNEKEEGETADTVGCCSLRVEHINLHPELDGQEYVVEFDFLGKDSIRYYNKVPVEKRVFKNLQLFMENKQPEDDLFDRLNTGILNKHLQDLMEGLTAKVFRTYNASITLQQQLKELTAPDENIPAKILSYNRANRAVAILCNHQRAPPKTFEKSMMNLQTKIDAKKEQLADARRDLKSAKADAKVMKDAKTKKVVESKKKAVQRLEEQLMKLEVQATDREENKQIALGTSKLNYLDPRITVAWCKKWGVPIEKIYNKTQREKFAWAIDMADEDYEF
The assay is described as follows: Biosensor analysis of the effect of peptide on top 1-DNA binding. To be noted: 50 nM CPP4; top 1 5, 10 and 20 nM; biotinylated linear DNA. As for the experimental part:
Biotinylated linear DNA was attached to the flow cell via straptavidin. Top 1 (5, 10 and 20 nM) was applied.

A further assay deals with HCT 116 tumor. As to the kind of experiment: In vivo HCT 116 tumor xenograft in nude mice. To be noted: all doses tested, i.p. Further details: species or system nude (BalbC nu/nu) mice. As for the experimental part: In vivo mouse studies: HCT 116 cells (4×10^6) were injected into the flanks of nude (BalbC nu/nu) mice for both experiments. The animals were randomized when the tumors were staged at 50 mm^3. In the first experiment, control animals were administered 0.1 ml of vehicle (α-MEM containing 0.05% methylcarboxycellulose and 2% DMSO) i.p., in the absence of peptide (PBS, control #1) or presence of T1BP2-T (control #2, 150 μg in 0.1 ml PBS) or T1BP3-T (control #3, 150 μg in 0.1 ml PBS) injected s.c. at site of tumor. […] Animals treated with 9AC were divided into 4 groups, each containing 5 mice. T1BP-T and PBS subcutaneous injections were administered as described above at the site of the tumor, 30 minutes after the i.p. injection of 9AC in a 50 μl volume. 9AC was dissolved in vehicle. Groups consisted of animals treated with a total of 4 mg/kg 9AC (low dose) in the absence or presence of T1BP2-T or a total of 8 mg/kg 9AC (high dose). Animals were treated with 1 or 2 mg/kg doses, twice a week over 2 weeks. In the second experiment, 18 mice were evaluated in three groups of six animals. Control animals were injected i.p. with 0.1 ml of vehicle (α-MEM containing 0.05% methylcarboxycellulose and 2% DMSO). […]

DRVPLVHVIFNSFGY [CPP4]: the “top 1 dissociation from DNA” value with top 1-DNA binding is listed as “dissociation is slowed”.
Consider `CC[C@@]1(O)C(=O)OCc2c1cc1n(c2=O)Cc2cc3c(N)cccc3nc2-1` [9AC, 9-amino camptothecin], for which the “anti-tumor effect of 9AC alone” value with HCT 116 tumor is given as “significant anti-tumor effects”.
